{"source": "paper PMC11070302", "about": "(Drug resistance updates : reviews and commentaries in …, 2024)", "biological_target": "the molecule itself", "assay": "non-reducing SDS-PAGE and protein staining", "data": [{"protein": "PEPD^G278D, a recombinant and enzymatically inactive mutant of human peptidase D (enzyme, UniProt P12955 1-493, looked up) MAAATGPSFWLGNETLKVPLALFALNRQRLCERLRKNPAVQAGSIVVLQGGEETQRYCTDTGVLFRQESFFHWAFGVTEPGCYGVIDVDTGKSTLFVPRLPASHATWMGKIHSKEHFKEKYAVDDVQYVDEIASVLTSQKPSVLLTLRGVNTDSGSVCREASFDGISKFEVNNTILHPEIVECRVFKTDMELEVLRYTNKISSEAHREVMKAVKVGMKEYELESLFEHYCYSRGGMRHSSYTCICGSGENSAVLHYGHAGAPNDRTIQNGDMCLFDMDGEYYCFASDITCSFPANGKFTADQKAVYEAVLRSSRAVMGAMKPGVWWPDMHRLADRIHLEELAHMGILSGSVDAMVQAHLGAVFMPHGLGHFLGIDVHDVGGYPEGVERIDEPGLRSLRTARHLQPGMVLTVEPGIYFIDHLLDEALADPARASFLNREVLQRFRGFGGVRIEEDVVVTDSGIELLTCVPRTVEEIEACMAGCDKAFTPFSGPK", "values": [{"measurement": "stoichiometry N", "value": 2}]}]}
